How the values were obtained:
Assay in all cases: cell-based or functional assay
[1] = target: human pituitary adenylate cyclase-activating polypeptide type I receptor (human) (UniProt P41586)
[2] = target: T1, VPAC2
T1 sequence (P41587 whole entry, species assumed, looked up): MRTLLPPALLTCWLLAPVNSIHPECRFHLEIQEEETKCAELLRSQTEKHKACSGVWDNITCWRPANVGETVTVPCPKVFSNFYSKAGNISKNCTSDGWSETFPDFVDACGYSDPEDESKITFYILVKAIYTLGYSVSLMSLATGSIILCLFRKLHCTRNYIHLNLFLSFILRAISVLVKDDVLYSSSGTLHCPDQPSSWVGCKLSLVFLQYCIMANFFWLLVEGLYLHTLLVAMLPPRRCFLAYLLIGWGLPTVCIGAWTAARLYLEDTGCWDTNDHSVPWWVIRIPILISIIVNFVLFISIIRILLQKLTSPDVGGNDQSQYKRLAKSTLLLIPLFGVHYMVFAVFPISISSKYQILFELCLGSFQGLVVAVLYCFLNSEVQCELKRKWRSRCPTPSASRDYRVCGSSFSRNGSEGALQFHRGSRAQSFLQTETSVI

[3] = target: T2, VPAC1
T2 sequence (P32241 whole entry, species assumed, looked up): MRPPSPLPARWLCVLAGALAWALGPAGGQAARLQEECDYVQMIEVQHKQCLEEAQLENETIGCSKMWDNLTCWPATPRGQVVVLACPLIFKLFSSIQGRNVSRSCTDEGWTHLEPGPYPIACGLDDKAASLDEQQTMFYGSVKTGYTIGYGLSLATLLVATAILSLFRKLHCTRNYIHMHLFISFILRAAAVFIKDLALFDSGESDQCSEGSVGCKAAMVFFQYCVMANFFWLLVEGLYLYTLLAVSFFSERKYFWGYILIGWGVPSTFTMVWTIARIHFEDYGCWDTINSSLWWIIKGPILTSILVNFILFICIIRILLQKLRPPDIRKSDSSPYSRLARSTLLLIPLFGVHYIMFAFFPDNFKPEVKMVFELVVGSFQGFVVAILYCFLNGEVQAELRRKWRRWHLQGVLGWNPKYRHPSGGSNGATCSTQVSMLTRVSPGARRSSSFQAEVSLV

Maxadilan, sequence (P30659 24-84 limits assumed): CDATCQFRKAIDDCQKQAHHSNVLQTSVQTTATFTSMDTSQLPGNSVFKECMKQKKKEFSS
human pituitary adenylate cyclase-activating polypeptide type I receptor (human), sequence (P41586 21-468): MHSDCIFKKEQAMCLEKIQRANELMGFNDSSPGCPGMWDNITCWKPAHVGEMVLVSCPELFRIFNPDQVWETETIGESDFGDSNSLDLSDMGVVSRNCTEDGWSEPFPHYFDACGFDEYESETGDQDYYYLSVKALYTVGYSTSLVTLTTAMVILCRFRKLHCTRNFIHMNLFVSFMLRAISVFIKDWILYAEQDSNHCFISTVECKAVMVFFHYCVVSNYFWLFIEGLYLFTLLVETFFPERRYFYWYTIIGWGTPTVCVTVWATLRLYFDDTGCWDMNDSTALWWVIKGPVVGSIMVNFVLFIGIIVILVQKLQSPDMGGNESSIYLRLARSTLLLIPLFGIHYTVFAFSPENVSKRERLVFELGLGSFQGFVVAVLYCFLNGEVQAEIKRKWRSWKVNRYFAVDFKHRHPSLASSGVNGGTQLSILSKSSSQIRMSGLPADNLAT

Question: “Maxadilan (from UniProt P30659 24-84) (ligand)” was tested. Which PAC1 EC50 (agonist activity) [1] did it give?
Answer: Its PAC1 EC50 (agonist activity) is 0.06 nM.

Question: And the VPAC2 EC50 (agonist activity) [2]?
Answer: The VPAC2 EC50 (agonist activity) was over 1000 nM.

Question: What about the VPAC1 EC50 (agonist activity) [3] of the same substance?
Answer: The VPAC1 EC50 (agonist activity) was over 1000 nM.
